In the nanobody polyreactivity screen of Harvey et al. (2022):

Test: yeast display, Sf9 membrane polyspecificity reagent, FACS + sequencing; frameworks hold sequencing errors
In short: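 After 36–48 hours of galactose induction, yeast (Saccharomyces cerevisiae BJ5465) displaying a synthetic nanobody library were stained at 4 °C for 1 hour with 10% biotinylated, detergent-solubilized Sf9 membrane reagent. Streptavidin microbeads enriched the stained cells before FACS sorting into low and high (top ~1%) gates on anti-HA and streptavidin fluorescence. Each clone's polyreactivity label reflects its gate of origin.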

Sequence | polyreactivity (PSR sort gate)
QVQLVESGGGLVQAGGSLRLSCAASGFIFLSYAMGWYRPAPGKERELVAAISGRGGSTYYADSVKGRFTISRDNAKNTVYLQMNSLKPEDTAVYYCAARLYRYNYDYWGQGTQVTVSS | high polyreactivity
QVQLVESGGGLVQAGGSLRLSCDASGFIFLGNAMGWYRQAPGKERELVAAISSGGSTYADSVKGRFTISRDNAKNTVYLQMNSLKPEDTSVYYCAVERAFRAQNYHEYDYWGQGTQVTVSS | low polyreactivity
QVQLVESGGGLVQARGSLRLSCAASGSIFYGNTMGWYRQAPGKESEFVAAISYGGGGTYYADSVKGRFTISRDNAKNTVYLQMNILKPEDTAVYYCATDDPLYQINEQGMDYWGLGTQVTVSS | low polyreactivity
QVQLVESGGGLVQAGGSLRLSCAASGSTFWYYAMGWYRQAPGKERELVASITYSGGSTYYADSVKGRFTISRDNAKNTVSLQMNSLKPEDTAVYYCAAEGYYSNYHYWGQGTQVTVSS | low polyreactivity
QVQLEESGGGLDQAGGSLRLSCAASGRIFFYNAMGWYRQAPGKERELVAGISRSGTSTYYADSVKGRFTNSRDNAKNTVFLQMNSLKPEDTAVYYCAAAAWSVILWREMDYWGQGTQVTVSS | low polyreactivity
QVQLVESVGGLVQAGGSLPLSSAASGSIFYRYALGWYRQAPGKERELVAAISDRSGSTYYADSVKGRFTISRDNAKNTVYLQMNSLKPEATAVYYCAASYNYRAAGYGLSRYYYWGQGTQVTVSS | high polyreactivity
QVQLVESGGGLVQAGGSLRLSCAASGRIFASYAMGWYRQAPGKERELVAAISLSGGSTYYADSVKGRFTISRDNAKNTVYLLMNSLKPEDNAVYYCNRLSNNREYVYWGQGTQLTVSS | high polyreactivity
QVQLVESGGGLVQAGGSLRLSCAASGRIIQYNAMGWYRQAPGKERELVAAMSWRSGRTYYADSVKGRFTISRDNAKNTVYLQMNSLKPEDTAVYYCAATSRTSWYGYWGQGTQVTVSS | high polyreactivity
QVQLVESGGGLVQAGGSLRLSCAASGFIFYYYAMGWYRQAPGKEREFVAGISRSGGSTYYADSVKGRFTISRDNAKNTVYLQMNSLKPEDTAVYYCGEFWTYWGYGQYDYWGQGTQVTVSS | low polyreactivity
QVQLVESGGGLVQAGGSLRLSCAASGYAMGWYRQAPGKERELGAAITSGGSTNYADSVKGRFTISRDNAKNTVYLQMNSVKPEDTAVYYCAAAYSLYGHRYDYWGQGTQVTVSS | low polyreactivity
QVQLVESGGGLVQAGGSLRLSCAASGSTFPYYAMGWYRQAPGKERELVAAITSSASTYYADSVKGRFTISRDNAKNTVYLQMNSLKPEDTAVYYCAVRSPYRLSRWRVGYWGQGTQVTVSS | high polyreactivity
QVQLVESGGRIVQAGGSLRLICAASGRIFVRNAMGWYRQAPGKERELVAAITTSGGRTYYADSVKGRFTISRDNAKNTVYLQMNSLKPEDTAVYYCAADTRYRNYPYYYWGQGTQVTVSS | high polyreactivity
QVQLVESGGGLVQAGGSLSLSCAASGGTFSPYAMGWYRQAPGKERELVAITSSDSTNYADSVKGRFTISRDNAKNTVYLQMNSLKPEDTAVYYCNAGYPIPEDYLAYGNFDYWGQGTQVTVSS | low polyreactivity
QVQLVESGGGLVQAGGSLRLSCAASGFIFGYNAMGWYRQEPGKERELVARIRYRGARTYYADSVKGRFTISRDNAKNTVYLQMNSLKPEDTAVYYCAAVASWPGGYDYWGQGTQVTVSS | high polyreactivity
QVQLVESGGGLVQAGGSLRLSCAASGFTFRFYAMGWYRQAPGKERELVAAISYNGGSTYYADSVKGRFTISRDNAKNTVYLQMNSLKPEDTAVYYCAAGYYWQYTSSSAQYAYDYWGQGTQVTVSS | low polyreactivity
QVQLVESGGGLVQAGGSLRLSCAASGRTFEGNALGWYRQAPGKERELVAAITSGGRTNYADSVKGRFTISRDNAKNTVYLQMNSLKPEDTAVYYCAVETRDRSTYFPGQAYDYWGQGTQVTVSS | low polyreactivity
QVQLVESGGGLVQAGGSLRLSCAASGSTFYTNAMGWYRQAPGKERELVAASNYSGGSTYYADSVKGRFTISRDNAKNTVYLQMNSLKPEDTAVYYCATDLHWLVTKYGYWGQGTQVTVSS | low polyreactivity
QVQLVESGGGLVQAGGSLRLSCAASGRTISKNAMGWYRQAPGKERELVAAISGSGGSTYYADSVKGRFTISRDNAKNTVYLQMNSLKPEDTAVYYCADRYTVSRSGYWGQGTQVTVSS | high polyreactivity
QDQLVESGGGLVQAGGSLRLSCAASGSTFHWYVMGWYRQAPGKERELVAAISQSGGNTYYADSVKGRFTISRDNAKNTVYLQMNSLKPEVTAVFYCAADSVGVFNTTFFQFEYWGQGTQVTVSS | high polyreactivity
QVQLVESGGGLVQAGGSLRLRCAASGSIFKRYAMGWYRQAPGKERELVAAISWGGGRTYYADSVKGRFTISRDTAKNTVYLQMNSLKPEDTAVYYCNRVGSYGQSNSYQGGDYWGQGTQVTVSS | high polyreactivity
QVQLVESGGGLDQAGGSLRLSCAASGRILTGYAMGWYRQAPVKVRELVAAISNDTDSTHYADSVKGRFTISRDNAKKTVYLQMNSLKPEATAVYYCATDAPLQKRWRRFDYWGQGTHVTVSS | low polyreactivity
QVQLVESGGGLVQAGGSLRLSCAASGFIFSLYAMGWYRQAPGKERELVAVITWSDGRTYYADSVKGRFTISRDNAKNTVYLQMNSLKPEDTAVYYCAAADWITEYDYWGQGTQVTVSS | low polyreactivity

Sequence | polyreactivity (PSR sort gate)
QVQLVESGGGLVQAGGSLRLSCAASGIIFYYYGMGWYRQAPGKEREFVAAISTSGGNTYYADSVKGRFTISRDNAKNTVYLQMNSLKPEDTAVYYCAADDWPWGDAGVDYWGQGTQVTVSS | low polyreactivity
QVQLVESGGGLVQAGGSLRLSCAASGSIFRSYAMGWYRQAPGKERELVAAISSGGRTKYADSVKGRFTISRDNAKNTVYLQMNSLKPEDTAVYYCAARVNVKYYGFYYWGQGTQVTVSS | high polyreactivity
QVQLVESGGGLVQAGGSLRLSCAASGYTFPRYTMGRYRQAPGKERELVAVIRRSGGTHYADSVKGRFTISRDNAKNTVYLLMYSLNPVDIAVYYCAVVSLLQNIPYGFWGQGTQVTVSS | high polyreactivity
QVQLVESGGGLVQAGGSLRLSCAASGSIFYLNAMGWYRQAPGKERELVAAINRGGSTSYADSVKGRFTISRDNAKNTVYLQMNSLKPEDTAVYYCAADHGGVQYSVRYDYWGQGTQVTVSS | low polyreactivity
QVQLVESGGGLVQAGGSLRLSCAASGFIITGNPMGWYRQAPGKERELVAAITSGGNTYYADSVKGRFTISRDNANNTVYLQMNSLKPEDTAVYYCAKYVPHWRILMEYWGQGTQVTVSS | low polyreactivity
QVQLVESGGGLVQAGGSLRLSSAASGRILPVNTMGWYRQAPGKERELVAVITRSGGRTYYADSVKGRFTISRDNAKNTVYLQMNSLKPEDTAVYYCAADVGFRWYRYTAGPLEYDYWGQGTQVTVSS | high polyreactivity
QVQLVESGVGLVQAGGSLRLSCAASGGIFSTYTMGWYIQAPGKERELVAAITTGNSTYYADSVKGRFTISRDNAKNTVYLQMNSLKPEDTAVYYCAAFAASRDYYRRLIHDGYDYWGQGTQVTVSS | low polyreactivity
QVQLQESGGGLVQAGRSQRLSCAASGYIFYFQYMGWYRQAPGKEREFVAAISDGANTNYADSVKGRFTISRDNAKNSEYLQMNSLKPEDTAVYYCAVYADENYYYIYWGQGTQVTVSS | low polyreactivity
QVQLVESGGGLVQAGGSLRLSCAATGRIFLKYTMGWYRQAPGKERELVAAISRGRSTYYADSVKGRFTISRDNAMNTVYLQMNSLKPEDTAVYYFAATSYRRTGYYYWGQGTQVTVSS | high polyreactivity
QVQLVESGGGLVQAGGSLRLSCAASGRIFGRYAMGGSRQAPGKERELVAAITSSGGNTYYADSVKGRFTISRDNAKNTVYLQMNSLKPEDTAVYYCNALSARSRLQSDYWGQGTQVTVSS | high polyreactivity
QVQLVESGGGLFQAGGSLRLSCAASGFTFGHNSMGWYRQAPGKERELVAAISYSGGSTYYADSVKGRFTSSRDNAKNTVYLQMNSLKPEDTAVYYCAKRSHTDSVPGVYNEGDFWGQGTQVTVSS | low polyreactivity
QDQLVESGGGLVQAGGSLRLSCAASGSTIFVYTMGWYRQAPGKERELVAAISGSGGSTSYADSVKGRFTISRDNAKNTVYLQMNSLKPEDTAVYYCAARRHVYLRGSTFEFYYWGQGTQVTVSS | high polyreactivity
QVQLVESGGGLVQAGGSLRLSCAASGRISSLYAMGWYRQAPGKERELVAGITWRGGSTYYADSVKGRFTISRDNAKNTVYLQMNSLKPEDTAVYYCNAVWVQQVVGDGKRTWNFWYDYWGQGTQVTVSS | low polyreactivity
QVQLVESGGGLVQAGGILRLSCAASGSIFVGNAMGGYRQAPGKERELVATISWSGGSTYYADSVKGRFTISRDNAKNTVYLQMNCLKPEDSAVYYCAKTPYRRYRYGGYTYRTYDYWGQGTQVTVSS | low polyreactivity
PVQLVESGGGLVQAGGSLRLSCAASGSIFCYYTMGWYRQAPGKERELVASIDYSGVSTYYADSVKGRFTISRDNAKNTVYLQMNSLKPEDTAVYDCNAVYYSWDGSTWEYGYWGQGTQVTVSS | low polyreactivity
QVQLVESGGGLVQAGGSLRLSCAASGSTFSWNTMGWYRQAPGKERELVADIRTSGGGTYYADSVKGRFTISRDNAKNSVYLQMNSLKPEDTAVYYCNGDPKWEMVSWGQGTQVTVSS | low polyreactivity
QVQLVESGRGLVQAGGSLRLSCAASGSTFQYYAMGWYRPATGKERELDAAINSRGTSTFYADSVKGRFTISRDNAKNTVYLQMNSLKPEDTAVDYCNARGPRYGNRYRNDYWGQGTQGTVSS | high polyreactivity
QVQLVESGGGLVQAGGSLRLSCAASGRIFYYNDMGWYRQAPGKERELVATITIGNSTNYADSVKGRFTISRDNAKNTVYLQMKSLKPEDTAVYYCNADYSDVTTGDWRYENDYWGQGTQVTVSS | low polyreactivity
QVQLVESAGGLVQAGGRLRLSCAASGITISYYAMGWYRQAPGKERELVASISWRGGGTYYADSVKGRFTISRDNAKNTVYLQMNSVKPEDTAVYYCAADEKLYITRYDYWGQGTQVTVSS | low polyreactivity
QVQLVESGGGLVQAGGSLRLSCAASGSIFVTYAMGWYRQAPGKERELVAVITWGGGSTYYADSVKGRFTISRDNAKNTVYLQMNSLKPEDTAVYYCAKDSYYYRRDVTVDYWGQGTQVTVSS | low polyreactivity
QVQLVDSGGGLVQAGGSLRLSCPASGSIIPYNALGWYRQAPGKERELVATISSGGSTNYADSVKGRFTISRDNAKNTVYFQMNSLKPEDTAVYYCAADVIVFYYAPNYWGDIEYGYWGQGTQVTVSS | low polyreactivity
